From US20150344570A1 (published 2015)

T1: FcγRIIb, extracellular domain with C-terminal His tag (human, UniProt P31994 43-217)
T1 construct: extracellular domain; also called 2b; FcgRIIb; not shown: His tag at the C terminus
T1 sequence (looked up): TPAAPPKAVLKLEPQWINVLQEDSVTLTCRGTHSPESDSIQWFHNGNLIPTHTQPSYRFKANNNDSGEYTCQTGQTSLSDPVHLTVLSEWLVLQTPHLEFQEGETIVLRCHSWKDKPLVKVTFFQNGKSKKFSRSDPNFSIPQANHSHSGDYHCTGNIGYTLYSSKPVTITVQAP

T2: FcγRIIa H (FcgRIIa type H, His at position 131), extracellular domain with C-terminal His tag (human, UniProt P12318 34-217)
T2 construct: extracellular domain; also called 2aH; FcgRIIa H; not shown: His tag at the C terminus
T2 sequence (looked up): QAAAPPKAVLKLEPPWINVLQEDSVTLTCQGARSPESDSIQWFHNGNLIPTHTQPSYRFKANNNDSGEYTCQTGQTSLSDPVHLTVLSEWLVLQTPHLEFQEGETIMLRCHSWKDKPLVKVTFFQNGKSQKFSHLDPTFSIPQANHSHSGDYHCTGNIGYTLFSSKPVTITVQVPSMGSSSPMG


Columns and labels:
[1] = biological target: T1, FcγRIIb, extracellular domain with …; assay: SPR (Biacore), relative binding, GpH7-A5/GpH7-B3/GpL16-k0 = 100
[2] = biological target: T2, FcγRIIa H (FcgRIIa type H, His at …); assay: as above

Binder | He/Con_2b [1] | He/Con_2aH [2]
GpH7-A5/GpH7-B3 variant A330_01G/GpL16-k0 (antibody, human IgG1, kappa, He Ab; alteration in one H chain only; also called He Ab) heavy 1: not shown heavy 2: not shown light: DIVMTQSPLSLPVTPGEPASISCQASESLVHSNRNTYLHWYLQKPGQSPQLLIYKVSNRFSGVPDRFSGSGSGTDFTLKISRVEAEDVGVYYCSQNTHVPPTFGQGTKVEIERTVAAPSVFIFPPSDEQLKSGTASVVCLLNNFYPREAKVQWKVDNALQSGNSQESVTEQDSKDSTYSLSSTLTLSKADYEKHKVYACEVTHQGLSSPVTKSFNRGEC | 104 % of control | 99 % of control
GpH7-A5/GpH7-B3 variant K334_02A/GpL16-k0 (antibody, human IgG1, kappa, He Ab; alteration in one H chain only; also called He Ab) heavy 1: not shown heavy 2: not shown light: DIVMTQSPLSLPVTPGEPASISCQASESLVHSNRNTYLHWYLQKPGQSPQLLIYKVSNRFSGVPDRFSGSGSGTDFTLKISRVEAEDVGVYYCSQNTHVPPTFGQGTKVEIERTVAAPSVFIFPPSDEQLKSGTASVVCLLNNFYPREAKVQWKVDNALQSGNSQESVTEQDSKDSTYSLSSTLTLSKADYEKHKVYACEVTHQGLSSPVTKSFNRGEC | 108 % of control | 97 % of control
GpH7-A5/GpH7-B3 variant A330_05P/GpL16-k0 (antibody, human IgG1, kappa, He Ab; alteration in one H chain only; also called He Ab) heavy 1: not shown heavy 2: not shown light: DIVMTQSPLSLPVTPGEPASISCQASESLVHSNRNTYLHWYLQKPGQSPQLLIYKVSNRFSGVPDRFSGSGSGTDFTLKISRVEAEDVGVYYCSQNTHVPPTFGQGTKVEIERTVAAPSVFIFPPSDEQLKSGTASVVCLLNNFYPREAKVQWKVDNALQSGNSQESVTEQDSKDSTYSLSSTLTLSKADYEKHKVYACEVTHQGLSSPVTKSFNRGEC | 137 % of control | 85.7 % of control
GpH7-A5/GpH7-B3 variant K326_15Y/GpL16-k0 (antibody, human IgG1, kappa, He Ab; alteration in one H chain only; also called He Ab) heavy 1: not shown heavy 2: not shown light: DIVMTQSPLSLPVTPGEPASISCQASESLVHSNRNTYLHWYLQKPGQSPQLLIYKVSNRFSGVPDRFSGSGSGTDFTLKISRVEAEDVGVYYCSQNTHVPPTFGQGTKVEIERTVAAPSVFIFPPSDEQLKSGTASVVCLLNNFYPREAKVQWKVDNALQSGNSQESVTEQDSKDSTYSLSSTLTLSKADYEKHKVYACEVTHQGLSSPVTKSFNRGEC | 159 % of control | 98.3 % of control
GpH7-A5/GpH7-B3 variant K326_20W/GpL16-k0 (antibody, human IgG1, kappa, He Ab; alteration in one H chain only; also called He Ab) heavy 1: not shown heavy 2: not shown light: DIVMTQSPLSLPVTPGEPASISCQASESLVHSNRNTYLHWYLQKPGQSPQLLIYKVSNRFSGVPDRFSGSGSGTDFTLKISRVEAEDVGVYYCSQNTHVPPTFGQGTKVEIERTVAAPSVFIFPPSDEQLKSGTASVVCLLNNFYPREAKVQWKVDNALQSGNSQESVTEQDSKDSTYSLSSTLTLSKADYEKHKVYACEVTHQGLSSPVTKSFNRGEC | 148 % of control | 83.3 % of control
GpH7-A5/GpH7-B3 variant K334_10E/GpL16-k0 (antibody, human IgG1, kappa, He Ab; alteration in one H chain only; also called He Ab) heavy 1: not shown heavy 2: not shown light: DIVMTQSPLSLPVTPGEPASISCQASESLVHSNRNTYLHWYLQKPGQSPQLLIYKVSNRFSGVPDRFSGSGSGTDFTLKISRVEAEDVGVYYCSQNTHVPPTFGQGTKVEIERTVAAPSVFIFPPSDEQLKSGTASVVCLLNNFYPREAKVQWKVDNALQSGNSQESVTEQDSKDSTYSLSSTLTLSKADYEKHKVYACEVTHQGLSSPVTKSFNRGEC | 114 % of control | 98.2 % of control
GpH7-A5/GpH7-B3 variant K334_05P/GpL16-k0 (antibody, human IgG1, kappa, He Ab; alteration in one H chain only; also called He Ab) heavy 1: not shown heavy 2: not shown light: DIVMTQSPLSLPVTPGEPASISCQASESLVHSNRNTYLHWYLQKPGQSPQLLIYKVSNRFSGVPDRFSGSGSGTDFTLKISRVEAEDVGVYYCSQNTHVPPTFGQGTKVEIERTVAAPSVFIFPPSDEQLKSGTASVVCLLNNFYPREAKVQWKVDNALQSGNSQESVTEQDSKDSTYSLSSTLTLSKADYEKHKVYACEVTHQGLSSPVTKSFNRGEC | 105 % of control | 97.6 % of control
GpH7-A5/GpH7-B3 variant K326_16H/GpL16-k0 (antibody, human IgG1, kappa, He Ab; alteration in one H chain only; also called He Ab) heavy 1: not shown heavy 2: not shown light: DIVMTQSPLSLPVTPGEPASISCQASESLVHSNRNTYLHWYLQKPGQSPQLLIYKVSNRFSGVPDRFSGSGSGTDFTLKISRVEAEDVGVYYCSQNTHVPPTFGQGTKVEIERTVAAPSVFIFPPSDEQLKSGTASVVCLLNNFYPREAKVQWKVDNALQSGNSQESVTEQDSKDSTYSLSSTLTLSKADYEKHKVYACEVTHQGLSSPVTKSFNRGEC | 119 % of control | 97.9 % of control
